Assay: Degradation of 20K OGF-PEG ester conjugate and release of OGF in human plasma at 37 °C
Assay type: in vitro ADME
Conditions: incubated in human plasma at 37 °C, 0.5 to 24 hours; reversed-phase HPLC or size exclusion chromatography
Experimental: Experiments for degradation of the 20K Tyr-gly-gly-phe-met-C(O)—O-mPEG conjugate (20K OGF-C(O)—O-mPEG or 20K OGF—PEG ester) and the release of OGF were conducted in human plasma at 37 ° C. The OGF—PEG conjugate containing hydrolysable ester linkages was incubated in human plasma at 37° C. for various periods of time, ranging from 0.5 to 24 hours. An aliquot plasma sample was withdrawn and treated with acetonitrile or acetonitrile/methanol organic solvent, vortexed, centrifuged, and concentrated. The solution residue was then analyzed by reversed-phase HPLC chromatography or size exclusion chromatography to check the amount of OGF-PEG and the released amount of OGF at various time points. The plasma T1/2 for 20K OGF-C(O)—O-mPEG was about 5 hours.

20K Tyr-Gly-Gly-Phe-Met-C(O)O-mPEG [20K OGF-C(O)—O-mPEG]
plasma T1/2: about 5 hours

— US20170290892A1, “POLYMERIC […]” (PEG BIOSCIENCES, INC., priority 2014, published 2017)
